T1: human TL1A extracellular domain with N-terminal HIS and FLAG tag (human, UniProt O95150 72-251)
T1 construct: the whole entry is named; also called TNFSF15
T1 sequence: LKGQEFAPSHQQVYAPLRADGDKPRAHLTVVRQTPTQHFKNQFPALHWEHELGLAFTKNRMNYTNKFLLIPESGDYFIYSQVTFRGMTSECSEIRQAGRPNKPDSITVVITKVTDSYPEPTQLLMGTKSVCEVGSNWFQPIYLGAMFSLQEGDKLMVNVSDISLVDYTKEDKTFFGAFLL

B1: 320-492 (antibody, human IgG1, name in Kabat numbering, V domains shown)
VH: QVQLVQSGAEVKKPGASVKVSCKASGYTFTSYDINWVRQAPGQGLEWMGWQNPNSGNTGYAQKFQGRVTMTADRSTSTAYMELSSLRSEDTAVYYCAREVPETAAFEYWGQGTLVTVSS
VL: QSVLTQPPSVSGAPGQRVTISCTSSSSDIGAGLGVHWYQQLPGTAPKLLIEGYYNRPSGVPDRFSGSKSGTSASLTITGLLPEDEGDYYCQSYDGTLSALFGGGTKLTVLG
notes: full-length human IgG1, lambda
B2: 320-521 (antibody, human IgG1, name in Kabat numbering, V domains shown)
VH: B1 VH with Q51L, N54W
VL: B1 VL
notes: as for B1
B3: 320-511 (antibody, human IgG1, name in Kabat numbering, V domains shown)
VH: B1 VH with Q51L, P53L
VL: B1 VL
notes: as for B1
B4: 320-502 (antibody, human IgG1, name in Kabat numbering, V domains shown)
VH: B1 VH with Q51L, N52K
VL: B1 VL
notes: as for B1
B5: 320-513 (antibody, human IgG1, name in Kabat numbering, V domains shown)
VH: B1 VH with Q51L, P53Y
VL: B1 VL
notes: as for B1
B6: 320-506 (antibody, human IgG1, name in Kabat numbering, V domains shown)
VH: B1 VH with Q51L, P53S
VL: B1 VL
notes: as for B1
B7: 320-493 (antibody, human IgG1, name in Kabat numbering, V domains shown)
VH: B1 VH with Q51D
VL: B1 VL
notes: as for B1
B8: 320-519 (antibody, human IgG1, name in Kabat numbering, V domains shown)
VH: B1 VH with Q51L, N54K
VL: B1 VL
notes: as for B1
B9: 320-520 (antibody, human IgG1, name in Kabat numbering, V domains shown)
VH: B1 VH with Q51L, N54L
VL: B1 VL
notes: as for B1
B10: 320-512 (antibody, human IgG1, name in Kabat numbering, V domains shown)
VH: B1 VH with Q51L, P53W
VL: B1 VL
notes: as for B1
B11: 320-495 (antibody, human IgG1, name in Kabat numbering, V domains shown)
VH: B1 VH with Q51K
VL: B1 VL
notes: as for B1
B12: 320-494 (antibody, human IgG1, name in Kabat numbering, V domains shown)
VH: B1 VH with Q51H
VL: B1 VL
notes: as for B1
B13: 320-518 (antibody, human IgG1, name in Kabat numbering, V domains shown)
VH: B1 VH with Q51L, N54H
VL: B1 VL
notes: as for B1
B14: 320-500 (antibody, human IgG1, name in Kabat numbering, V domains shown)
VH: B1 VH with Q51L, N52D
VL: B1 VL
notes: as for B1
B15: 320-503 (antibody, human IgG1, name in Kabat numbering, V domains shown)
VH: B1 VH with Q51L, N52W
VL: B1 VL
notes: as for B1
B16: 320-510 (antibody, human IgG1, name in Kabat numbering, V domains shown)
VH: B1 VH with Q51L, P53K
VL: B1 VL
notes: as for B1
B17: 320-522 (antibody, human IgG1, name in Kabat numbering, V domains shown)
VH: B1 VH with Q51L, N54Y
VL: B1 VL
notes: as for B1
B18: 320-504 (antibody, human IgG1, name in Kabat numbering, V domains shown)
VH: B1 VH with Q51L, N52Y
VL: B1 VL
notes: as for B1
B19: 320-523 (antibody, human IgG1, name in Kabat numbering, V domains shown)
VH: B1 VH with Q51L, S55A
VL: B1 VL
notes: as for B1
B20: 320-505 (antibody, human IgG1, name in Kabat numbering, V domains shown)
VH: B1 VH with Q51L, P53A
VL: B1 VL
notes: as for B1
B21: 320-517 (antibody, human IgG1, name in Kabat numbering, V domains shown)
VH: B1 VH with Q51L, N54D
VL: B1 VL
notes: as for B1
B22: 320-507 (antibody, human IgG1, name in Kabat numbering, V domains shown)
VH: B1 VH with Q51L, P53Q
VL: B1 VL
notes: as for B1
B23: 320-499 (antibody, human IgG1, name in Kabat numbering, V domains shown)
VH: B1 VH with Q51L, N52Q
VL: B1 VL
notes: as for B1
B24: 320-498 (antibody, human IgG1, name in Kabat numbering, V domains shown)
VH: B1 VH with Q51L, N52S
VL: B1 VL
notes: as for B1
B25: 320-516 (antibody, human IgG1, name in Kabat numbering, V domains shown)
VH: B1 VH with Q51L, N54Q
VL: B1 VL
notes: as for B1
B26: 320-509 (antibody, human IgG1, name in Kabat numbering, V domains shown)
VH: B1 VH with Q51L, P53H
VL: B1 VL
notes: as for B1
B27: 320-515 (antibody, human IgG1, name in Kabat numbering, V domains shown)
VH: B1 VH with Q51L, N54S
VL: B1 VL
notes: as for B1
B28: 320-514 (antibody, human IgG1, name in Kabat numbering, V domains shown)
VH: B1 VH with Q51L, N54A
VL: B1 VL
notes: as for B1
B29: 320-508 (antibody, human IgG1, name in Kabat numbering, V domains shown)
VH: B1 VH with Q51L, P53D
VL: B1 VL
notes: as for B1
B30: 320-496 (antibody, human IgG1, name in Kabat numbering, V domains shown)
VH: B1 VH with Q51W
VL: B1 VL
notes: as for B1
B31: 320-497 (antibody, human IgG1, name in Kabat numbering, V domains shown)
VH: B1 VH with Q51L, N52A
VL: B1 VL
notes: as for B1
B32: 320-501 (antibody, human IgG1, name in Kabat numbering, V domains shown)
VH: B1 VH with Q51L, N52H
VL: B1 VL
notes: as for B1

This note sets out measurements from US20170081400A1 (CEPHALON, published 2017).

Residue numbers refer to the chain shown, from its start.

The first experiment deals with T1, human TL1A extracellular domain with …. The experiment is described as follows: SPR Run 7, antibody on Protein A, TL1A 5 ug/mL, timepoint 44. The source says: (§1) 1.5. Antibody expression and antigen binding as determined by SPR. Using a CM5 sensor chip (GE Healthcare) Protein A (Pierce) was coupled to the chip surface using an amine coupling kit (GE Healthcare). Protein A was coupled on flow cell 1 and 2 (or alternatively 3 and 4) using a BIACORE® T200. […] The amount of supernatant or purified protein (as well as the concentration) injected during the capture stage varied between runs and is specified in the header of the Tables 3-11. At the end of injection of the supernatant or purified antibody the change in response units was measured. This value was reported as Capture Level in Tables 3-11. […] The response units were measured prior to the end of the dissociation phase. […] The sensorgrams were double referenced (flow cell 2 is subtracted from flow cell 1 and a buffer blank). As there were a large number of antibody variants to screen, these were screened across different runs (Tables 3-11). […] A summary of the conditions used in each run is below:
(§2) 2.1. […] In some experiment the antibodies were purified using Protein A chromatography (See 1.4) and purified antibodies were used in BIACORE® (GE Healthcare) experiments.
On to B1, for which the “TL1A Binding Level (Early)” value is 89 RU.
On the same count and under the same terms, the result for B2 reads 166 RU; that for B3, 106 RU; that for B4, 88 RU.
With B5, the “TL1A Binding Level (Early)” value worked out at 99 RU.
Same read-out and setting: the result for B6 reads 97 RU; that for B7, 48 RU.
Turning to B8, the “TL1A Binding Level (Early)” value is 217 RU.
Regarding B9, the “TL1A Binding Level (Early)” value was found to be 174 RU.
The same measure, in the same setting: the result for B10 reads 126 RU; that for B11, 84 RU.
The same measure, in the same setting: the result for B12 reads 150 RU; that for B13, 169 RU.
Still for that read-out and setting: the result for B14 reads 69 RU.
Turning to B15, the “TL1A Binding Level (Early)” value worked out at 41 RU.
With B16, the “TL1A Binding Level (Early)” value is 44 RU.
Regarding B17, the “TL1A Binding Level (Early)” value came to 141 RU.
Same read-out and setting: the result for B18 reads 88 RU.
For the molecule B19, the “TL1A Binding Level (Early)” value is 88 RU.
In the case of B20, the “TL1A Binding Level (Early)” value was 118 RU.
Turning to B21, the “TL1A Binding Level (Early)” value was determined as 55 RU.
Still for that read-out and setting: the result for B22 reads 27 RU.
For the molecule B23, the “TL1A Binding Level (Early)” value was determined as 122 RU.
The same measure, in the same setting: under B24 stands 90 RU; under B25, 92 RU; under B26, 52 RU.
The same measure, in the same setting: the result for B27 reads 73 RU; that for B28, 96 RU.
Consider B29, for which the “TL1A Binding Level (Early)” value is 19 RU.
As to B30, the “TL1A Binding Level (Early)” value was found to be 93 RU.
Still for that read-out and setting: the result for B31 reads 135 RU.
Regarding B32, the “TL1A Binding Level (Early)” value amounted to 118 RU.

Another experiment shares this target. The experiment is described as follows: SPR Run 7, antibody on Protein A, TL1A 5 ug/mL, timepoint 220.
Excerpt: as §1, §2
In the case of B1, the “TL1A Binding Level (Late)” value was 82 RU.
With B2, the “TL1A Binding Level (Late)” value turned out to be 152 RU.
In the case of B3, the “TL1A Binding Level (Late)” value turned out to be 98 RU.
In the case of B4, the “TL1A Binding Level (Late)” value came out at 59 RU.
Still for that read-out and setting: under B5 stands 90 RU; under B6, 89 RU.
The same measure, in the same setting: the result for B7 reads 46 RU; that for B8, 196 RU.
As to B9, the “TL1A Binding Level (Late)” value is 162 RU.
The same measure, in the same setting: under B10 stands 118 RU; under B11, 77 RU.
Still for that read-out and setting: the result for B12 reads 138 RU; that for B13, 153 RU; that for B14, 53 RU.
Same read-out and setting: under B15 stands 6 RU; under B16, 33 RU; under B17, 129 RU.
For B18, the “TL1A Binding Level (Late)” value stood at 65 RU.
On the same count and under the same terms, under B19 stands 82 RU; under B20, 110 RU.
Same read-out and setting: the result for B21 reads 50 RU; that for B22, 24 RU; that for B23, 113 RU.
On to B24, for which the “TL1A Binding Level (Late)” value was 82 RU.
Still for that read-out and setting: the result for B25 reads 86 RU; that for B26, 47 RU; that for B27, 67 RU.
On the same count and under the same terms, under B28 stands 88 RU; under B29, 12 RU.
On the same count and under the same terms, under B30 stands 87 RU; under B31, 125 RU; under B32, 108 RU.
